Source: paper PMC11828465
One block for each substance: values may come before it.

Target: Vps26A (UniProt O75436)
Experiment: BRET titration curves in live cells
Details: sites S72

- other: BRET50 (reference: NEK7KO HEK293 cells): stronger; reference 0.0096±0.0039
Substance: Rab7A (from UniProt P51149) NEK7KO HEK293 cells expressing HA–NEK7

- other: BRET50 (reference: wild-type HEK293 cells): weaker; reference 0.0022±0.0009
Substance: Rab7A (from UniProt P51149) NEK7KO HEK293 cells

- other: BRET50 (reference: wild type RlucII–Rab7A): weaker; reference 0.0026±0.000512
Substance: Rab7A (from UniProt P51149) S72A
